{"source": "paper PMC4001326", "about": "“DNA polymerase V activity is autoregulated by a novel intrinsic DNA-dependent ATPase”", "key": {"[1]": {"target": "pol V Mut E38K/K72R K72R;RecA:E38K (Escherichia coli (pol V from strain RW644)) (UniProt P0AG11+P04152+P0A7G6)", "assay": "fluorescence anisotropy", "details": "fluorescein-dT replacing T44 (from parent S5); 20 mM Tris-HCl pH 7.5, 25 mM Na glutamate, 8 mM MgCl2, 8 mM DTT, 4% glycerol, 0.1 mM EDTA, 37 C; 50 nM labeled hairpin; 500 uM ATP or ATPgS (titrations to …)"}, "[2]": {"target": "pol V Mut E38K/ΔC17 del17-17;RecA:E38K (Escherichia coli (pol V from strain RW644)) (UniProt P0AG11+P04152+P0A7G6)", "assay": "fluorescence anisotropy", "details": "fluorescein-dT replacing T44 (from parent S5); 20 mM Tris-HCl pH 7.5, 25 mM Na glutamate, 8 mM MgCl2, 8 mM DTT, 4% glycerol, 0.1 mM EDTA, 37 C; 50 nM labeled hairpin; 500 uM ATP or ATPgS (titrations to …)"}, "[3]": {"target": "T1, pol V Mut WT (UmuD'2C-RecA-ATP) (Escherichia coli (pol V from strain …, UniProt P0AG11;P04152;P0A7G6 25-139;1-422;2-353))", "assay": "fluorescence anisotropy; ATPgS titration, saturating at about 220 uM; 20 mM Tris-HCl pH 7.5, 25 mM Na glutamate, 8 mM MgCl2, 8 mM DTT, 4% glycerol, 0.1 mM EDTA, 37 C; 50 nM labeled hairpin; 500 uM ATP or ATPgS (titrations to 750 uM)", "details": "protein: recombinant, tags: His (pol V), chain copies: 2;1;1, label: fluorescein (internal dT), 18 bp stem, 5' overhang 3 nt by name"}, "[4]": {"target": "T1, pol V Mut WT (UmuD'2C-RecA-ATP)", "assay": "fluorescence anisotropy; 500 uM ATPgS; 20 mM Tris-HCl pH 7.5, 25 mM Na glutamate, 8 mM MgCl2, 8 mM DTT, 4% glycerol, 0.1 mM EDTA, 37 C; 50 nM labeled hairpin; 500 uM ATP or ATPgS (titrations to 750 uM)", "details": "protein: recombinant, tags: His (pol V), chain copies: 2;1;1, label: fluorescein (internal dT), 18 bp stem, 5' overhang 12 nt"}}, "note": "Values joined by “and” are separate entries in the source; they are usually repeats but may differ in a detail not shown here. Identical values can stand only once."}
{"molecule": "CGAAACAGGAAAGCAGTTAGCGCATTCAGCTCATACTGCTGAATGCGCTAACTGC [Fluorescein 12 nt oh HP]", "values": [{"measurement": "Kd", "setting": "[1]", "value": 920, "unit": "nM"}, {"measurement": "Kd", "setting": "[2]", "value": "312 nM and 469 nM"}]}
{"molecule": "AGAGCAGTTAGCGCATTCAGCTCATACTGCTGAATGCGCTAACTGC (structured_DNA, fluorescein-dT replacing T17 (from parent S1))", "note": "[Fluorescein 3 nt oh HP]", "values": [{"measurement": "binding result", "setting": "[3]", "value": "binds"}]}
{"molecule": "Fluorescein 12 nt oh HP (structured_DNA, fluorescein-dT replacing T44 (from parent S5)) DNA: CGAAACAGGAAAGCAGTTAGCGCATTCAGCTCATACTGCTGAATGCGCTAACTGC", "values": [{"measurement": "Kd", "setting": "[4]", "value": "876 ± 52", "unit": "nM"}]}
